Laboratory results from US20250313625A1 (ELPISCIENCE SUZHOU BIOPHARMA, published 2025).
Substitutions are numbered along the chain they refer to. Names and notes keep the numbering of the source.

T1: human LAG3, full length, stably expressed on cells (human, UniProt P18627 23-525)
T1 construct: whole, on cells; also called CHOK1-human LAG3
T1 sequence (looked up): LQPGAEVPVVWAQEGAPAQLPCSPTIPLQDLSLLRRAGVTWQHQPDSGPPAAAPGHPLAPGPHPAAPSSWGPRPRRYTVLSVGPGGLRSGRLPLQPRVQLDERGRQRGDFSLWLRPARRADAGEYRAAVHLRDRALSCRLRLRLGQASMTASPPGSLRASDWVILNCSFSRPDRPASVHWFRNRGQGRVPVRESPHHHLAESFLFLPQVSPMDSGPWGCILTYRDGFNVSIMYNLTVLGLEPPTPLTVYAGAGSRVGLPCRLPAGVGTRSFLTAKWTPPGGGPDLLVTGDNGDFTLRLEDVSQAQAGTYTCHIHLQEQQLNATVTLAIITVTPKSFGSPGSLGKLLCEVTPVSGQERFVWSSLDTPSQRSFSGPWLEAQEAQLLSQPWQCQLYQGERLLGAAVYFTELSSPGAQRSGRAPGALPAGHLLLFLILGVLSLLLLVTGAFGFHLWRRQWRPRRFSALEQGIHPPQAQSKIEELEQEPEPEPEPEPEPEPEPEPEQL

T2: mFc tagged human LAG3 ECD recombinant protein (human, UniProt P18627 23-450)
T2 construct: extracellular domain; purchased from Biointron; not shown: mouse IgG Fc (mFc) tag
T2 sequence (looked up): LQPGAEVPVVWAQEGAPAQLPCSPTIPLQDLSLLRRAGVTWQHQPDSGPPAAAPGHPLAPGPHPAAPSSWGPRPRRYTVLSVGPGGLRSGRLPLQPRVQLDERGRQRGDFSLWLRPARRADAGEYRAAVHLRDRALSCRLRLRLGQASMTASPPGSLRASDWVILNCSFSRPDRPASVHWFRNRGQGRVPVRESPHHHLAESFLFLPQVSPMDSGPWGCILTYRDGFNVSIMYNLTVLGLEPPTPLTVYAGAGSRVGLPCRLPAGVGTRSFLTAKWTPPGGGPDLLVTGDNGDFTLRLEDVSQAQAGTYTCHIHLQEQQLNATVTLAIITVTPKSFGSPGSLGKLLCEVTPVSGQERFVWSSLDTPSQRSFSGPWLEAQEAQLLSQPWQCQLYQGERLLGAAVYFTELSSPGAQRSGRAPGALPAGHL

T3: human LAG3 ECD recombinant protein (plate coated, tag not stated) (human, UniProt P18627 23-450)
T3 construct: extracellular domain
T3 sequence (looked up): T2 sequence (looked up)

T4: hFc tagged human LAG3 ECD recombinant protein (human, UniProt P18627 23-450)
T4 construct: range 23-450; also called biotin labelled hFc tagged human LAG3 ECD; not shown: human IgG Fc tag
T4 sequence (looked up): T2 sequence (looked up)

T5: hFc tagged human LAG3 D1-D2 recombinant protein (human, UniProt P18627 23-261)
T5 construct: range 23-261; generated by Chempartner; also called hLAG3 D1-D2; not shown: human IgG Fc tag
T5 sequence (looked up): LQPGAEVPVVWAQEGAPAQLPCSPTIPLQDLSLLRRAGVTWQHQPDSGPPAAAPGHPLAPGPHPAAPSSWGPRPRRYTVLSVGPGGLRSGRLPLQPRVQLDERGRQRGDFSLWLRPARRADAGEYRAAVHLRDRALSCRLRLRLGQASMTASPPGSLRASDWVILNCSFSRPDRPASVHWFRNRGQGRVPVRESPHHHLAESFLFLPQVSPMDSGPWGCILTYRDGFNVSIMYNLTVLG

T6: mouse LAG3, full length, stably expressed on CHOK1 cells (mouse, UniProt Q61790 24-521)
T6 construct: whole, on cells
T6 sequence (looked up): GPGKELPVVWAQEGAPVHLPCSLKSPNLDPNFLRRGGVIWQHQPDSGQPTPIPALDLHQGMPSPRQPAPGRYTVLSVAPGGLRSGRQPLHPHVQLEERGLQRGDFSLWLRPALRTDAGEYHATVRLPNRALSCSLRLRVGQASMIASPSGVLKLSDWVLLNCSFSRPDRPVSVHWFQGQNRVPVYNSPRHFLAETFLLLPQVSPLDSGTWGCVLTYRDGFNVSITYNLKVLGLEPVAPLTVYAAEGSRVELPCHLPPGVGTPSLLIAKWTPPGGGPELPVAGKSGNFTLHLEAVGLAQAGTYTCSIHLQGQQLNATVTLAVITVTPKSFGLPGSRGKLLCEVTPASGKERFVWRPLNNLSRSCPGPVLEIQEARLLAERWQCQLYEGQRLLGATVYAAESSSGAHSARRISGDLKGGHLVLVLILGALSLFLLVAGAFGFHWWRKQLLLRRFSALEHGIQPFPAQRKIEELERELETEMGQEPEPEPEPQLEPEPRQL

B1: 047c (antibody, human IgG4, V domains shown)
VH: QVQLQQSGAELARPGASVKLSCKASGYSFTSYGVNWVKQRTGQGLEWIGEIYPRSGNTYYNERFGDKATLTADKSSSTAYMEIRSLTSEDSAVYFCARGGTYDGYYYAMDYWGQGTSVTVSS
VL: DIVLTQSPASLAVSLGQRATISCRASESVDNFGSSFMHWYQQKPGQAPKLLIYRASNLESGIPARFSGSGSRTDFTLTINPVETDDVATYYCQQVNKDPRTFGGGTKLEIK
notes: human IgG4 S228P / kappa chimeric antibody; also called chimeric antibody 047; not shown: human kappa light chain constant region (pcDNA3.4-hIgGk vector)
B2: Antibody 021 (antibody, V domains shown)
VH: DIQLQESGPGLVKPSQSLSLTCSVTGYSITSGYYWNWIRQFPGNKLEWMGDISYDGGNNYNPSLKNRISITRDTSKNQFFLKLNSVTTEDTATYYCARDITLTGAMDYWGQGTSVTVSS
VL: B1 VL with F32Y, S34I, K43R, A47P, V95S, R100Y
notes: mouse hybridoma antibody

How the values were obtained:
[1] = molecular target: T1, human LAG3, full length, stably …; test: FACS on 293F cells stably expressing human LAG3
Procedure: (§1) Briefly the antibodies were incubated with 2×10⁵ target cells at 4° C. for 1 hour. After washing, fluorescence labeled anti-mouse IgG 2nd antibody (Life Technologies) was added and incubated at 4° C. for 1 hour. Geometric median fluorescence intensity (MFI) was detected and EC₅₀ was calculated using GraphPad Prism9.0.
MFI was detected and EC₅₀ was calculated using GraphPad Prism9.0.

[2] = molecular target: T2, mFc tagged human LAG3 ECD recombinant …; test: competitive FACS: mFc-LAG3 ECD binding to Raji cells (MHC II)
Procedure: Activity of the purified chimeric antibodies to block LAG3 and MHC II interaction was determined by competitive FACS assay. […] After washing, dye labeled anti-mouse Fc 2nd antibody (Sigma) was added and incubated at 37° C. for 1 hour. Fluorescence intensity was detected.

[3] = molecular target: T3, human LAG3 ECD recombinant protein …; test: competitive ELISA format I: His-FGL1 binding to coated LAG3 ECD
Procedure: (§2) After washing, HRP labeled anti-His 2nd antibody (Sigma) was added and incubated at 37° C. for 1 hour. Then, 100 μl/well of TMB solution (Biotechnology) was added. After incubation for 15 minutes at room temperature, the reaction was stopped by the addition of 50 μl of 1N HCl. OD 450 nm was read. […] After washing, HRP labeled anti-SA 2nd antibody (Sigma) was added and incubated at 37° C. for 1 hour. Then, 100 μl/well of TMB solution (Biotechnology) was added. After incubation for 15 minutes at room temperature, the reaction was stopped by the addition of 50 μl of 1N HCl. OD 450 nm was read. […] The competition assay of format III is a competitive FACS assay. […] After washing, dye labeled anti-His 2nd antibody (Sigma) was added and incubated at 37° C. for 1 hour. Fluorescence intensity was detected.

[4] = molecular target: T4, hFc tagged human LAG3 ECD recombinant …; test: competitive ELISA format II: biotin hFc-LAG3 ECD binding to coated His-FGL1
Procedure: as §2

[5] = molecular target: T5, hFc tagged human LAG3 D1-D2 recombinant …; test: ELISA, coated hFc-hLAG3 D1-D2
Procedure: Binding activity of the purified hybridoma antibodies against human LAG3 was detected by ELISA assay using hFc tagged human LAG3 D1-D2 recombinant protein. Briefly the antibodies were incubated with ELISA microplate coated antigens at 37° C. for 1 hour. After washing, horseradish peroxidase (HRP) labeled anti-human IgG 2nd Ab (Sigma) was added and incubated at 37° C. for 1 hour. Then, 100 μl/well of TMB solution (Biotechnology) was added. After incubation for 15 minutes at room temperature, the reaction was stopped by the addition of 50 μl of 1N HCl. OD 450 nm was read and EC₅₀ was calculated using GraphPad Prism9.0.

[6] = molecular target: T1, human LAG3, full length, stably …; test: FACS on 293F-human LAG3 cells
Procedure: as §1

[7] = molecular target: T6, mouse LAG3, full length, stably …; test: FACS on CHOK1 cells expressing mouse LAG3
Procedure: as §1

[8] = molecular target: T7, cyno LAG3, full length, stably expressed on 293F cells (cyno); test: FACS on 293F-cyno LAG3 cells, 20 nM antibody
T7 construct: whole, on cells
Procedure: as §1

[9] = molecular target: T4, hFc tagged human LAG3 ECD recombinant …; test: competitive FACS: hFc-LAG3 ECD binding to Raji cells (MHC II)
Procedure: Competitive FACS assay was used to determine whether the purified hybridoma antibodies can block LAG3 and MHC II interaction. […] After washing, dye labeled anti-human Fc 2nd antibody (Sigma) was added and incubated at 37° C. for 1 hour. Fluorescence intensity was detected.

[10] = molecular target: T4, hFc tagged human LAG3 ECD recombinant …; test: competitive ELISA: excess competitor, biotin hFc-LAG3 ECD, coated BAP-050
Procedure: (§3) Competitive ELISA assay was used for epitope binning of the purified hybridoma antibodies. […] After washing, HRP labeled anti-streptavidin (SA) 2nd antibody (Sigma) was added and incubated at 37° C. for 1 hour. Then, 100 μl/well of TMB solution (Biotechnology) was added. After incubation for 15 minutes at room temperature, the reaction was stopped by the addition of 50 μl of 1N HCl. OD 450 nm was read. Competition ratio was calculated.

[11] = molecular target: T4, hFc tagged human LAG3 ECD recombinant …; test: competitive ELISA: excess competitor, biotin hFc-LAG3 ECD, coated BMS-986016
Procedure: as §3

Binder | EC50 [1] [nM] | TOP MFI [1] | IC50 [2] [nM] | TOP blocking (%) [2] [%] | Blocking ratio at 66.7 nM (%) [3] [%] | IC50 [4] [nM] | TOP blocking (%) [4] [%] | EC50 [5] [nM] | EC50 [6] [nM] | binding result [7] | MFI at 20 nM [8] [MFI] | IC50 [9] [nM] | TOP blocking (%) [9] [%] | % competition [10] [%] | % competition [11] [%]
B1 | 1.3 | 249 | 3.6 | 90.4 | 14 | 35.9 | 12.6 |  |  |  |  |  |  |  | 
B2 |  |  |  |  |  |  |  | 0.02 | 5.52 | no binding | 105 | 4 | 98.6 | 57.1 | 6.9
